# B1: CL-4 (XNA)
# RNA: GCCUUAGUAACGUGCUUUGAUGUCGAUUCGACAGGAGGC
# modifications: 2'-F on all C and U; A and G are RNA
# B2: CL-4RNV616 (XNA)
# RNA: UGCUUUGAUGUCGAUUCGACAGGAGGC
# modifications: 2'-OMe on U, G, C; all A (positions 8, 14, 19, 21, 24) are DNA
# B3: CL-4RNV617 (structured_RNA)
# RNA: UGCUUUGAUGUCGAUUCGACAGGAGGC
# modifications: none (all RNA)
# B4: CL-4RNV618 (structured_DNA)
# DNA: TGCTTTGATGTCGATTCGACAGGAGGC
# modifications: none (all DNA)
# What was measured:
# [1] = biological target: T1, EGFR recombinant protein (Sino Biological 10001-H08H) (human, UniProt P00533 25-645); experiment: ELONA; Binding buffer: serum-free DMEM + 100 ug/mL tRNA; aptamers denatured 95 C 5 min, snap cooled on ice 10 min; ELONA 1 h (temperature not given); flow cytometry Kd; conditions: protein: commercial, label: 5'-biotin (ELONA)
# [2] = biological target: T1, EGFR recombinant protein (Sino …); experiment: ELONA; 100 nM aptamer; Binding buffer: serum-free DMEM + 100 ug/mL tRNA; aptamers denatured 95 C 5 min, snap cooled on ice 10 min; ELONA 1 h (temperature not given); flow cytometry Kd; conditions: protein: commercial; label: 5'-biotin (ELONA)
Binder,binding result [2],further results
B1,–,Kd [1]: 13.3 nM
B2,–,Kd ([1]; 5'-FAM (cells)): 18.2 nM
B3,no binding,–
B4,no binding,–
